Three molecules from PMC7829508, “Binding of Campylobacter jejuni FliW Adjacent to the CsrA RNA-Binding Pockets Modulates CsrA Regulatory Activity” (Frontiers in Microbiology, 2020) can be followed below.

Residue numbers refer to the chain shown, from its start. Numbers in names are those of the source.

One assay has as its target FliW-His6 (C. jejuni) (UniProt Q0P9H9). As to the kind of experiment: SPR; BIAcore T100; FliW-His6 amine-coupled to CM5 chip; CsrA-His6 injected at 0-500 nM, 30 μL/min, 180 s association, 600 s dissociation; 20 mM phosphate buffer, 0.05% Tween 20, pH 7.4; bivalent analyte model, constant of the first binding event (KD1).
A further assay concerns the target T1, FliW-His6 (C. jejuni, UniProt Q0P9H9 1-129).
T1 construct: FliW of Campylobacter jejuni, fliW cloned into pET-20b(+) (pET-20b-FliW-His6, Li et al., 2018); also called C. jejuni FliW
T1 sequence (looked up): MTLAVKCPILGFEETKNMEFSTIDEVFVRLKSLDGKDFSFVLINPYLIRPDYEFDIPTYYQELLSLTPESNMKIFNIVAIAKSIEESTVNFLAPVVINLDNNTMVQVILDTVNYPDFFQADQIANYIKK
Described as above. Conditions: both partners purified.

In the assay with FliW-His6 (C. jejuni), “CsrA-N55A-His6 (from UniProt P0DPD4 1-75) (natural protein)” returned a KD of the first ligand binding site (KD1, bivalent analyte model) of 93 nM.

B1: CsrA-WT-His6 (natural protein, C. jejuni 81-176, UniProt P0DPD4 1-75, looked up)
chain: MLILSRKENESIIIGEGIEIKVVQTGKGYAKIGIEAPKSLMILRKELVQQVKDENLHSVVQNDIKLDDLSKKLIK
notes: CsrA of Campylobacter jejuni, 75 amino acids; csrA cloned into pET-20b(+) (pET-20b-CsrA-His6, Fields et al., 2016); also called CsrA-His6; source: purified as described previously (El Abbar et al., 2019); not shown: His6, C-terminal, kept
As to B1, the “KD of the first ligand binding site (KD1, bivalent analyte model)” value with FliW-His6 was found to be 9 nM.

B2: CsrA-V51A-His6 (natural protein, C. jejuni 81-176, UniProt P0DPD4 1-75, looked up)
chain: B1 chain with V51A
notes: CsrA of Campylobacter jejuni, 75 amino acids, with V51A; point mutation cloned into pET20b (El Abbar et al., 2019); source: purified as described previously (El Abbar et al., 2019); not shown: His6, C-terminal, kept
With B2, the “KD of the first ligand binding site (KD1, bivalent analyte model)” value in the assay with FliW-His6 is 52 nM.
